Measurements: patent US20030113828A1, “Compositions and methods for modulating Syk function” (priority 2001, published 2003)

Molecular target: T1, integrin β3 cytoplasmic tail (Homo sapiens, UniProt P05106)
T1 construct: made in house
T1 sequence (P05106 742-788 limits assumed): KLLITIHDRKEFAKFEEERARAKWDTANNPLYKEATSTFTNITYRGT
Assay: Affinity chromatography/direct binding of kinase fragments to integrin tail
Settings: recombinant fragments, direct binding assay
Procedure: Following incubation, beads were washed and bound protein was analyzed by immunoblotting.
For direct binding assays, model peptides (1 mg) were dissolved in 1 ml buffer containing 20 mM Tris (pH 7.9), 500 mM NaCl, and 6 M urea. To this, 50 ul packed His-Bind® Resin (Novagen, Madison, Wis.) was added and the mixture was rotated for 1 hour at room temperature. Immobilized peptides were washed 5× in above buffer without urea, and resuspended in 500 μl buffer containing 20 mM PIPES pH 6.8, 50 mM NaCl, 3 mM MgCl2, 150 mM sucrose, 50 mM NaF, 40 mM Na4P2O7*10H2O (buffer A) supplemented with 0.1% TritonX-100 and 3 mM MgCl2. Purified GST-fusion proteins were added to 0.5 ml buffer A supplemented with 0.1% TritonX-100 and 3 mM MgCl2. Five μl of total packed resin loaded with various integrin cytoplasmic domain model proteins was added to the GST-fusion protein. The mixture was incubated for 40 minutes at room temperature with continuous rotation. The beads were then washed five times in buffer A with 0.1% TritonX-100 and 3 mM MgCl2. Bound proteins were eluted by boiling in reducing sample buffer, fractionated by SDS PAGE, and immuno-blotted.

B1: Zap-70(1-132): Zap-70 truncation lacking the C-terminal half of interdomain A (protein)
chain: MPDPAAHLPFFYGSISRAEAEEHLKLAGMADGLFLLRQCLRSLGGYVLSLVHDVRFHHFPIERQLNGTYAIAGGKAHCGPAELCEFYSRDPDGLPCNLRKPCNRPSGLEPQPGVFDCLRDAMVRDYVRQTWK
- binding to the β3 tail: decrease in binding

B2: Zap-70(1-337): Zap-70 fragment containing both SH2 and interdomains A and B (protein)
chain: MPDPAAHLPFFYGSISRAEAEEHLKLAGMADGLFLLRQCLRSLGGYVLSLVHDVRFHHFPIERQLNGTYAIAGGKAHCGPAELCEFYSRDPDGLPCNLRKPCNRPSGLEPQPGVFDCLRDAMVRDYVRQTWKLEGEALEQAIISQAPQVEKLIATTAHERMPWYHSSLTREEAERKLYSGAQTDGKFLLRPRKEQGTYALSLIYGKTVYHYLISQDKAGKYCIPEGTKFDTLWQLVEYLKLKADGLIYCLKEACPNSSASNASGAAAPTLPAHPSTLTHPQRRIDTLNSDGYTPEPARITSPDKPRPMPMDTSVYESPYSDPEELKDKKLFLKRDNL
modifications: left off: a dimerising Fc or GST
notes: Zap-70 fragment containing both SH2 and interdomains A and B
- binding to the β3 tail: bound
